According to paper PMC9110474:

Columns and labels:
[1] = biological target: TOM complex (translocase of the mitochondrial outer membrane), human, endogenous core complex (human (endogenous in HeLa or U2OS)) (UniProt O96008); experiment: native gel or EMSA; competition: mitochondria preincubated on ice for 10 min with 20 µg pSu9-DHFR-His, 1 mM methotrexate and 1 mM NADPH, depolarized, then import of radiolabeled PINK1; BN-PAGE, 700 kDa species quantified (clogger and TOM complex)
[2] = biological target: TOM complex (translocase of the mitochondrial outer membrane), human, endogenous core complex (human (endogenous in HeLa or U2OS)) (UniProt O96008)

- PINK1 association with the TOM complex left with pSu9-DHFR, % of control [1]: < 40%
- integration of radiolabeled TOM40 into the MOM of mitochondria preincubated with pSu9-DHFR, % of untreated mitochondria [2]: 60%
Substance: pSu9-DHFR-His
